# Data: patent publication US20250002565A1 (published 2025)
# Changes are numbered by the printed parent chain. No end group written: not given here.
# T1: 15-mer peptide LGIWGCSGKLICTTT (SEQ ID NO:1) (HIV, not fully specified; cysteine pairing not given here)
# T1 construct: also called U1731DB060-1; U173DB060-1
# T1 peptide: LGIWGCSGKLICTTT
# B1: HIV-binding peptide #10Q (antibody, V domains shown)
# VH: QVQLQESGGGVVQPGRSLRLSCAASGFTFSSYAIHWVRQAPGKGLEWVAVISYDGSNRYYADSVKGRFTISRDNSKNTLYLQMNSLRPEDTAVYYCARDRFSAVASTPTYHNYFYMDVWGKGTTVTVSS
# notes: also called antibody#10-5Q; U1205DB020-10
# B2: HIV-binding peptide #10V (antibody, V domains shown)
# VH: B1 VH with Q5V
# notes: differs from #10Q by Q to V at position 5 of the heavy chain; also called antibody#10-5V; U6323DD200-2
# B3: HIV-binding peptide #7 (antibody, human IgG1, kappa, V domains shown)
# VH: B1 VH
# VL: DIQMTQSPSSLSASVGDRVTITCQASQDVSNYLAWYQQKPGQAPRLLIYDASNLETGVPSRFSGSGSGTDFTLTISSLQPEDLATYYCQQYDNLPYTFGQGTKLEIKR
# notes: also called U1205DB020-7
# B4: HIV-binding peptide #1 (antibody, human IgG1, kappa, V domains shown)
# VH: B1 VH
# VL: B3 VL with S30N, L94T
# notes: Recombinant, fully human immunoglobulin; also called U1205DB020-1
# B5: HIV-binding peptide #9Q (antibody, human IgG1, V domains shown)
# VH: B1 VH
# B6: HIV-binding peptide #6 (antibody, human IgG1, kappa, V domains shown)
# VH: B1 VH
# VL: B3 VL with V29I, L94T
# notes: Recombinant, fully human immunoglobulin; also called U1205DB020-6
# B7: HIV-binding peptide #5 (antibody, human IgG1, kappa, V domains shown)
# VH: B1 VH
# VL: B3 VL with L94T
# notes: Recombinant, fully human immunoglobulin; also called U1205DB020-5
# B8: HIV-binding peptide #2 (antibody, human IgG1, kappa, V domains shown)
# VH: B1 VH
# VL: B3 VL with V29I, S30N, L94T
# notes: Recombinant, fully human immunoglobulin; also called U1205DB020-2
# B9: HIV-binding peptide #4 (antibody, human IgG1, kappa, V domains shown)
# VH: B1 VH
# VL: B3 VL with V29I, S30N
# notes: Recombinant, fully human immunoglobulin; also called U1205DB020-4
# B10: HIV-binding peptide #8 (antibody, human IgG1, kappa, V domains shown)
# VH: B1 VH
# VL: B3 VL with V29I
# notes: Recombinant, fully human immunoglobulin; also called U1205DB020-8
# B11: HIV-binding peptide #3 (antibody, human IgG1, kappa, V domains shown)
# VH: B1 VH
# VL: B3 VL with S30N
# notes: Recombinant, fully human immunoglobulin; also called U1205DB020-3
# B12: HIV-binding peptide #11Q (antibody, V domains shown)
# VH: B1 VH
# notes: Heavy chain only with variant CH1/CH2 (hinge cysteines replaced by serines)
# Target: T2, recombinant HIV gp41 (HIV)
# T2 construct: also called U7267DC080-1; U1916DG190-1
# Assay: indirect ELISA; gp41 coated 2 µg/ml in DTT (by the table's columns; paragraph 121 calls it the value against SEQ ID NO:1)
# Procedure: (§1) Variants #9V, #10V, and #11V were prepared with substitutions in the heavy chain. These variants comprised amino acids sequences nearly identical to #9Q, #10Q, and #11Q, respectively, with the only distinction being a substitution of glutamine (Q) for valine (V) at the 5 position of the heavy chain. Exemplary peptides #10Q and #10V were tested in indirect ELISA assays to determine the EC50 values for binding to the epitope having the amino acid sequence of SEQ ID NO:1 and HIV gp41. The results of these studies are shown in Tables 6 and 7 below, as well as FIGS. 2 and 3. Target proteins U7267DC080-1 and U173DB060-1 correspond to recombinant gp41 and the 15-mer peptide […] (SEQ ID NO:1), respectively.
row,Binder,EC50
1,B1,5.54 µg/mL
2,B2,4.59 µg/mL

# Target: gp41 of HIV isolate SF-162 (clade B clinical isolate) (HIV isolate SF-162, clade B)
# Assay: cell-based or functional assay
row,Binder,IC value vs SF 162 (µg/ml) in PBMC based in vitro assays
1,B1,0.05 µg/mL
2,B3,0.5 µg/mL
3,B2,0.5 µg/mL

# Target: T1, 15-mer peptide LGIWGCSGKLICTTT (SEQ ID …)
# Assay: indirect ELISA; 15-mer peptide coated 1 ug/ml in DTT; negative control well of this row (not explained)
# Procedure: (§2) In a first study, an ELISA was prepared in which the linear (reduced) form of the 15-mer peptide […] (SEQ ID NO:1) was coated onto a solid support and contacted with various concentrations of peptides #1, #2, #3, #4, #5, #6, #7, #8, #9Q, #10Q, and #11Q. A mouse, anti-human IgG Fc-HRP at 0.2 μg/ml was used as a secondary antibody.
row,Binder,ELISA OD (Neg. Cont.)
1,B4,0.096 OD
2,B1,0.084 OD
3,B5,0.105 OD
4,B6,0.087 OD
5,B7,0.078 OD
6,B3,0.088 OD
7,B8,0.075 OD
8,B9,0.091 OD
9,B10,0.088 OD
10,B11,0.083 OD
11,B12,0.104 OD

# Target: T1, 15-mer peptide LGIWGCSGKLICTTT (SEQ ID …)
# Assay: indirect ELISA; 15-mer peptide coated 1 ug/ml in DTT; antibody at 1000 ng/ml
# Procedure: as §2
row,Binder,ELISA OD
1,B4,0.079 OD
2,B1,1.71 OD
3,B5,0.745 OD
4,B6,0.079 OD
5,B7,0.081 OD
6,B3,0.09 OD
7,B8,0.068 OD
8,B9,0.07 OD
9,B10,0.076 OD
10,B11,0.072 OD
11,B12,0.441 OD

# Target: T3, gp41 on the membrane of HIV-infected CD4+ cells (HIV)
# T3 construct: whole, on cells; also called CD4 cell-surface gp41
# Assay: FACS on HIV-infected CD4+ cells, absence of sCD4
# Procedure: (§3) For the FACS binding studies, the CD4+ cells that were infected with HIV expressed HIV viral envelope proteins on the cell membrane surfaces, e.g., gp160=gp41 and gp 120. Binding of proteins #7, #10Q, and #10V was tested in both presence and absence of soluble CD4 (sCD4).
row,Binder,Fluorescent (FACS) counts
1,B1,120000 counts
2,B3,25900 counts
3,B2,56600 counts

# Target: T1, 15-mer peptide LGIWGCSGKLICTTT (SEQ ID …)
# Assay: indirect ELISA; 15-mer peptide coated 1 ug/ml in DTT; antibody at 12 ng/ml
# Procedure: as §2
row,Binder,ELISA OD
1,B4,0.08 OD
2,B1,0.14 OD
3,B5,0.111 OD
4,B6,0.077 OD
5,B7,0.082 OD
6,B3,0.096 OD
7,B8,0.065 OD
8,B9,0.073 OD
9,B10,0.094 OD
10,B11,0.087 OD
11,B12,0.092 OD

# Target: T2, recombinant HIV gp41
# Assay: GenScript binding assay, EC50 vs rgp41 (summary table; per first reading the same value as in Tables 6-8)
row,Binder,EC50
1,B1,1.78 µg/mL
2,B3,107 µg/mL
3,B2,1.39 µg/mL

# Target: T1, 15-mer peptide LGIWGCSGKLICTTT (SEQ ID …)
# Assay: indirect ELISA; 15-mer peptide coated 1 ug/ml in DTT; antibody at 111 ng/ml
# Procedure: as §2
row,Binder,ELISA OD
1,B4,0.076 OD
2,B1,0.377 OD
3,B5,0.171 OD
4,B6,0.08 OD
5,B7,0.071 OD
6,B3,0.084 OD
7,B8,0.188 OD
8,B9,0.073 OD
9,B10,0.1 OD
10,B11,0.072 OD
11,B12,0.127 OD

# Target: T1, 15-mer peptide LGIWGCSGKLICTTT (SEQ ID …)
# Assay: indirect ELISA; 15-mer peptide coated 1 ug/ml in DTT; antibody at 37 ng/ml
# Procedure: as §2
row,Binder,ELISA OD
1,B4,0.098 OD
2,B1,0.209 OD
3,B5,0.122 OD
4,B6,0.072 OD
5,B7,0.081 OD
6,B3,0.098 OD
7,B8,0.074 OD
8,B9,0.077 OD
9,B10,0.089 OD
10,B11,0.074 OD
11,B12,0.119 OD

# Target: T3, gp41 on the membrane of HIV-infected …
# Assay: FACS on HIV-infected CD4+ cells, presence of sCD4
# Procedure: as §3
row,Binder,Fluorescent (FACS) counts
1,B1,110000 counts
2,B3,25000 counts
3,B2,29900 counts

# Target: T2, recombinant HIV gp41
# Assay: indirect ELISA; gp41 coated 2 µg/ml in PBS
# Procedure: as §1
row,Binder,EC50
1,B1,1.78 µg/mL
2,B2,1.39 µg/mL

# Target: T1, 15-mer peptide LGIWGCSGKLICTTT (SEQ ID …)
# Assay: indirect ELISA; 15-mer peptide coated 1 ug/ml in DTT; antibody at 333 ng/ml
# Procedure: as §2
row,Binder,ELISA OD
1,B4,0.096 OD
2,B1,0.863 OD
3,B5,0.322 OD
4,B6,0.078 OD
5,B7,0.086 OD
6,B3,0.092 OD
7,B8,0.076 OD
8,B9,0.079 OD
9,B10,0.073 OD
10,B11,0.077 OD
11,B12,0.241 OD
